Target: HLA-A*02:01 (Homo sapiens, UniProt P04439, D140Y/D185E/D98H/E176V/E277Q/G131W/G231S/I119V/I121R/I166T/I218V/L300P/L318F/N151K/N90K/P208A/P217A/Q86G/Q94H/R138H/R169H/T345S)
Assay: MHC binding assay (UV-ligand exchange, ELISA, peptide exchange yield)
Conditions: binding of HLA-class I restricted peptides to HLA-A*02:01
Source text: Candidate peptides for T cell based therapies according to the present invention were further tested for their MHC binding capacity (affinity). The individual peptide-MHC complexes were produced by UV-ligand exchange, where a UV-sensitive peptide is cleaved upon UV-irradiation, and exchanged with the peptide of interest as analyzed. Only peptide candidates that can effectively bind and stabilize the peptide-receptive MHC molecules prevent dissociation of the MHC complexes. To determine the yield of the exchange reaction, an ELISA was performed based on the detection of the light chain ([…]) of stabilized MHC complexes. The assay was performed as generally described in Rodenko et al. (Rodenko et al., 2006).
96 well MAXISorp plates (NUNC) were coated over night with 2-ug/ml streptavidin in PBS at room temperature, washed 4× and blocked for 1 h at 37° C. in 2% BSA containing blocking buffer. […] Peptide-MHC monomers of the UV-exchange reaction were diluted 100 fold in blocking buffer. Samples were incubated for 1 h at 37° C., washed four times, incubated with 2-ug/ml HRP conjugated anti-β2m for 1 h at 37° C., washed again and detected with TMB solution that is stopped with […]. Absorption was measured at 450 nm. Candidate peptides that show a high exchange yield (preferably higher than 50%, most preferred higher than 75%) are generally preferred for a generation and production of antibodies or fragments thereof, and/or T cell receptors or fragments thereof, as they show sufficient avidity to the MHC molecules and prevent dissociation of the MHC complexes.

| Peptide exchange (MHC class I binding score, peptide exchange yield) | Substance |
| --- | --- |
| ″++″ (≥20% = ++) | 233 (VLSETLYEL; listed as Homo sapiens) [compound 233] |
| ″+++″ (≥50% = +++) | 287 (FLNEFFLNV; listed as Homo sapiens) [compound 287] |
| ″+″ (≥10% = +) | 153 (FLIANVLYL; listed as Homo sapiens) [compound 153] |
| ″+++″ (≥50% = +++) | 609 (ALWKQLLEL; listed as Homo sapiens) [compound 609] |
| ″++″ (≥20% = ++) | 44 (ILDPISSGFLL; listed as Homo sapiens) [compound 44] |
| ″+++″ (≥50% = +++) | 591 (SMAELDIKL; listed as Homo sapiens) [compound 591] |
| ″+++″ (≥50% = +++) | 29 (KMLGIPISNILMV; listed as Homo sapiens) [compound 29] |
| ″++″ (≥20% = ++) | 15 (VLLTFKIFL; listed as Homo sapiens) [compound 15] |
| ″++++″ (≥75% = ++++) | 159 (GLVGNPLPSV; listed as Homo sapiens) [compound 159] |
| ″+++″ (≥50% = +++) | 546 (VMIAGKVAVV; listed as Homo sapiens) [compound 546] |
| ″+++″ (≥50% = +++) | 110 (FLSQVDFEL; listed as Homo sapiens) [compound 110] |
| ″+++″ (≥50% = +++) | 163 (ALDEMGDLLQL; listed as Homo sapiens) [compound 163] |
| ″+++″ (≥50% = +++) | 129 (GLLDGGVDILL; listed as Homo sapiens) [compound 129] |
| ″+++″ (≥50% = +++) | 463 (SLVESHLSDQLTL; listed as Homo sapiens) [compound 463] |
| ″+++″ (≥50% = +++) | 225 (SLLKVLPAL; listed as Homo sapiens) [compound 225] |
| ″+++″ (≥50% = +++) | 554 (LLMPSSEDLLL; listed as Homo sapiens) [compound 554] |
| ″+++″ (≥50% = +++) | 401 (ILLDDTGLAYI; listed as Homo sapiens) [compound 401] |
| ″+++″ (≥50% = +++) | 312 (IISDLTIAL; listed as Homo sapiens) [compound 312] |
| ″+++″ (≥50% = +++) | 446 (QLIPALAKV; listed as Homo sapiens) [compound 446] |
| ″+++″ (≥50% = +++) | 588 (SLLPLSHLV; listed as Homo sapiens) [compound 588] |
| ″++″ (≥20% = ++) | 354 (LILEGVDTV; listed as Homo sapiens) [compound 354] |

| Peptide exchange (MHC class I binding score, peptide exchange yield) | Substance |
| --- | --- |
| ″++″ (≥20% = ++) | 526 (RLAEVGQYEQV; listed as Homo sapiens) [compound 526] |
| ″+++″ (≥50% = +++) | 555 (YVLEGLKSV; listed as Homo sapiens) [compound 555] |
| ″+++″ (≥50% = +++) | 271 (LVYPLELYPA; listed as Homo sapiens) [compound 271] |
| ″+++″ (≥50% = +++) | 471 (YLYNNMIAKI; listed as Homo sapiens) [compound 471] |
| ″+++″ (≥50% = +++) | 550 (FLYDEIEAEVNL; listed as Homo sapiens) [compound 550] |
| ″++″ (≥20% = ++) | 33 (VLLSLLEKV; listed as Homo sapiens) [compound 33] |
| ″+++″ (≥50% = +++) | 75 (GLLEVMVNL; listed as Homo sapiens) [compound 75] |
| ″+++″ (≥50% = +++) | 190 (FLSSLTETI; listed as Homo sapiens) [compound 190] |
| ″++″ (≥20% = ++) | 523 (YQIPRTFTL; listed as Homo sapiens) [compound 523] |
| ″+++″ (≥50% = +++) | 149 (NLLELFVQL; listed as Homo sapiens) [compound 149] |
| ″+++″ (≥50% = +++) | 215 (QLINHLHAV; listed as Homo sapiens) [compound 215] |
| ″+++″ (≥50% = +++) | 245 (SMIDDLLGV; listed as Homo sapiens) [compound 245] |
| ″+++″ (≥50% = +++) | 183 (FGLDLVTEL; listed as Homo sapiens) [compound 183] |
| ″++″ (≥20% = ++) | 381 (FIDEAYVEV; listed as Homo sapiens) [compound 381] |
| ″++++″ (≥75% = ++++) | 104 (STMEQNFLL; listed as Homo sapiens) [compound 104] |
| ″+++″ (≥50% = +++) | 272 (ALGNTVPAV; listed as Homo sapiens) [compound 272] |
| ″+++″ (≥50% = +++) | 386 (ILFRYPLTI; listed as Homo sapiens) [compound 386] |
| ″+++″ (≥50% = +++) | 613 (RLLPPGAVVAV; listed as Homo sapiens) [compound 613] |
| ″+++″ (≥50% = +++) | 361 (ALYELEGTTV; listed as Homo sapiens) [compound 361] |
| ″++++″ (≥75% = ++++) | 620 (KLLNKIYEA; listed as Homo sapiens) [compound 620] |
| ″+++″ (≥50% = +++) | 493 (GLLGEKTQDLIGV; listed as Homo sapiens) [compound 493] |

| Peptide exchange (MHC class I binding score, peptide exchange yield) | Substance |
| --- | --- |
| ″++″ (≥20% = ++) | 382 (ALQNYIKEA; listed as Homo sapiens) [compound 382] |
| ″++++″ (≥75% = ++++) | 289 (VLLEIEDLQV; listed as Homo sapiens) [compound 289] |
| ″+++″ (≥50% = +++) | 487 (LLINSVFHV; listed as Homo sapiens) [compound 487] |
| ″++++″ (≥75% = ++++) | 4 (GIMEHITKI; listed as Homo sapiens) [compound 4] |
| ″+++″ (≥50% = +++) | 280 (VLPDPEVLEAV; listed as Homo sapiens) [compound 280] |
| ″+++″ (≥50% = +++) | 88 (FLLVGDLMAV; listed as Homo sapiens) [compound 88] |
| ″+++″ (≥50% = +++) | 169 (NLPEYLPFV; listed as Homo sapiens) [compound 169] |
| ″+++″ (≥50% = +++) | 399 (YLFEPLYHV; listed as Homo sapiens) [compound 399] |
| ″++″ (≥20% = ++) | 453 (KLLEATSAV; listed as Homo sapiens) [compound 453] |
| ″++″ (≥20% = ++) | 227 (ALMNTLLYL; listed as Homo sapiens) [compound 227] |
| ″+++″ (≥50% = +++) | 70 (GLLDYPVGV; listed as Homo sapiens) [compound 70] |
| ″+++″ (≥50% = +++) | 59 (IMEDIILTL; listed as Homo sapiens) [compound 59] |
| ″+++″ (≥50% = +++) | 314 (ALIAEGIALV; listed as Homo sapiens) [compound 314] |
| ″++″ (≥20% = ++) | 538 (LLLAHIIAL; listed as Homo sapiens) [compound 538] |
| ″+++″ (≥50% = +++) | 518 (KLNAEVACV; listed as Homo sapiens) [compound 518] |
| ″+++″ (≥50% = +++) | 439 (YLLQEIYGI; listed as Homo sapiens) [compound 439] |
| ″+++″ (≥50% = +++) | 327 (GLAPFTEGISFV; listed as Homo sapiens) [compound 327] |
| ″+++″ (≥50% = +++) | 564 (TVTNAVVTV; listed as Homo sapiens) [compound 564] |
| ″++++″ (≥75% = ++++) | 602 (YLLEQIKLIEV; listed as Homo sapiens) [compound 602] |
